Data from article PMC8501640, “Altered Env conformational dynamics as a mechanism of resistance to peptide-triazole HIV-1 inactivators” (Retrovirology, 2021).
pEC50, pKd: −log10 of the molar value.

Experiments:
HxBc2 gp120 WT monomer = HxBc2 gp120 WT monomer (Human immunodeficiency virus type 1 group M subtype B, UniProt P04578); experiment: Isothermal titration calorimetry, WT gp120; type: binding, HIV-1; details: 25 °C
Method: (§1) Heats were obtained at 25 °C by injection of 8 μL of PT (100 μM) into a sample cell of a VP-ITC containing 1.4 mL recombinant HxBc2 gp120 (6–8 μM). Solid lines represent fits to a single site binding model.
(§2) The resulting heat changes upon injection were integrated over a time range of 240 s, and the obtained values were fit to a standard single site-binding model using Origin® software.

[1] = biological target: HxBc2 gp120 V255I monomer (Human immunodeficiency virus type 1 group M subtype B, UniProt P04578, V255I); experiment: Isothermal titration calorimetry, V255I gp120; type: binding, HIV-1
Method: as §1, §2

[2] = biological target: HxBc2 gp120 V255I/S143N monomer (Human immunodeficiency virus type 1 group M subtype B, UniProt P04578, S143N/V255I); experiment: Isothermal titration calorimetry, V255I/S143N gp120; type: binding, HIV-1; details: 25 °C
Method: as §1, §2

[3] = biological target: HIV-1 HxBc2 gp120 WT monomer (Human immunodeficiency virus type 1 group M subtype B, UniProt P04578); experiment: Surface plasmon resonance, WT gp120; type: binding
Method: (§3) SPR experiments were performed on a Biacore 3000 biosensor (Global Cytiva Lifesciences) at 25 °C using PBS-P (10 mM Phosphate, 150 mM NaCl, pH 7.4, 0.005% P-20) as the running buffer. A CM5 sensor chip was docked and derivatized by amine coupling with HIV-1HxBc2 WT and mutant gp120 subunits using freshly prepared 1:1 50 mM NHS (N-hydroxysuccinamide):200 mM EDC (1-ethyl-3-(3-(dimethylamino)propyl) carbodiimide). […] The equilibrium dissociation constant was calculated as KD = k−1/k1.
(§4) Rate constants k1 and k-1 are defined as they are in the 1:1 binding model, while k2 and k-2 are first order rate constants describing isomerization and de-isomerization, respectively. Equations describing the time course of the interactions can be found in Additional file 1: Method S1. For the fit, it was assumed that the states Env·PT and Env·PT^∗ had the same SPR signal. Rate constants were determined using a least-squares gradient-step algorithm coded in Visual Basic and implemented through Microsoft Excel.

[4] = biological target: HIV-1 HxBc2 gp120 V255I monomer (Human immunodeficiency virus type 1 group M subtype B, UniProt P04578, V255I); experiment: Surface plasmon resonance, V255I gp120; type: binding
Method: as §3, §4

[5] = biological target: HIV-1 HxBc2 gp120 V255I/S143N monomer (Human immunodeficiency virus type 1 group M subtype B, UniProt P04578, S143N/V255I); experiment: Surface plasmon resonance, V255I/S143N gp120; type: binding
Method: as §3, §4

CEM-GFP cells = experiment: WST-1 cytotoxicity assay; type: cell-based
Method: The cytotoxicity was determined on CEM-GFP cells via a colorimetric assay to measure the relative proliferation rates of cells in culture. […] After 18 h of incubation, the media containing compounds were discarded and treated with 10% (v/v) WST-1 (a tetrazolium salt) in fresh media for one hour at 37 °C. The cell viability was determined by measuring the absorbance at 450 nm using a Tecan Infinite F50 plate reader.
Figure S1. […] Data represent means and standard deviations of three independent experiments performed in triplicate.

BaL.01 viruses = system: BaL.01 viruses; design: method as in PMID 24330857, PMID 26331669; details: ref [16], [21], read-out: EC50 of induced gp120 shedding; cited from earlier work
[6] = biological target: HIV-1 HxBc2 Env S143N (HIV-1 (HxBc2 strain)) (UniProt P04578)
[7] = biological target: HIV-1 HxBc2 Env V255T (HIV-1 (HxBc2 strain)) (UniProt P04578)
[8] = biological target: HIV-1 HxBc2 Env V255T/S143N (HIV-1 (HxBc2 strain)) (UniProt P04578)
[9] = biological target: HIV-1 HxBc2 gp120 V255I, monomeric (HIV-1 (HxBc2 strain)) (UniProt P04578)
[10] = biological target: HIV-1 HxBc2 gp120 V255I/S143N, monomeric (HIV-1 (HxBc2 strain)) (UniProt P04578)
[11] = biological target: HIV-1 NL4-3 Env S143N (HIV-1 (NL4-3 strain))
[12] = biological target: HIV-1 NL4-3 Env V255I (HIV-1 (NL4-3 strain))
[13] = biological target: HIV-1 NL4-3 Env V255I/S143N (HIV-1 (NL4-3 strain))
[14] = biological target: HIV-1 NL4-3 Env V255T (HIV-1 (NL4-3 strain))
[15] = biological target: HIV-1 NL4-3 Env V255T/S143N (HIV-1 (NL4-3 strain))
[16] = biological target: HIV-1 HxBc2 gp120, wild type, monomeric (HIV-1 (HxBc2 strain)) (UniProt P04578); experiment: ITC
[17] = biological target: HIV-1 HxBc2 gp120, wild type, monomeric (HIV-1 (HxBc2 strain)) (UniProt P04578); experiment: SPR
[18] = biological target: HIV-1 HxBc2 gp120 V255I, monomeric (HIV-1 (HxBc2 strain)) (UniProt P04578); experiment: ITC; VP-ITC, 25 °C, 1 × PBS pH 7.4; 60–100 µM PT titrated in 8 µL steps into 2–8 µM monomeric HxBc2 gp120; single site-binding model
[19] = biological target: HIV-1 HxBc2 gp120 V255I/S143N, monomeric (HIV-1 (HxBc2 strain)) (UniProt P04578); experiment: as above
[20] = biological target: HIV-1 HxBc2 gp120 V255I, monomeric (HIV-1 (HxBc2 strain)) (UniProt P04578); experiment: SPR; Biacore 3000, 25 °C, PBS-P (10 mM phosphate, 150 mM NaCl, pH 7.4, 0.005% P-20); gp120 monomers amine-coupled to CM5 chip (1800–2200 RU), analytes flowed at 50 µL/min; AAR029b and sCD4 fitted to a Langmuir 1:1 model, KR13 to a three-state binding/isomerization model
[21] = biological target: HIV-1 HxBc2 gp120 V255I/S143N, monomeric (HIV-1 (HxBc2 strain)) (UniProt P04578); experiment: as above
[22] = de-isomerization, three-state model
[23] = isomerization, three-state model
[24] = V255I and V255I/S143N vs WT gp120

## CC[C@H](C)[C@H](NC(=O)[C@@H](N)CCCNC(=N)N)C(=O)N[C@@H](CC(N)=O)C(=O)N[C@@H](CC(N)=O)C(=O)N[C@H](C(=O)N1CC(n2cc([C]34[CH]5[CH]6[CH]7[CH]3[Fe]6754389%10[CH]4[CH]3[CH]8[CH]9[CH]4%10)nn2)C[C@H]1C(=O)N[C@@H](Cc1c[nH]c2ccccc12)C(=O)N[C@@H](CO)C(=O)N[C@@H](CCC(=O)O)C(=O)N[C@@H](C)C(=O)N[C@@H](CCSC)C(=O)N[C@@H](CCSC)C(=O)NCCC(=O)N[C@@H](CCC(N)=O)C(=O)NCCC(=O)N[C@@H](CS)C(N)=O)[C@@H](C)CC (stereo partly drawn) [KR13]
HxBc2 gp120 WT monomer
  ITC binding stoichiometry n: 1.1 ± 0.01
  ITC −TΔS: 7.8 ± 3.0 kcal/mol
[1]; V255I gp120 (HxBc2), 25 °C
  ITC binding stoichiometry n: 1.0 ± 0.04
  ITC −TΔS: 2.9 ± 1.5 kcal/mol
[1]; mutant vs wild type gp120, ITC
  absolute impact of V255I substitution on enthalpy (ΔH) and entropy (TΔS): 5 to 7 kcal/mol
[2]
  ITC binding stoichiometry n: 1.1 ± 0.08
  ITC −TΔS: 1.9 ± 0.93 kcal/mol
[3]; PT association
  SPR k1: 2.9 (M^−1 s^−1) × 10^–5
[3]; PT dissociation
  SPR k-1: 9.6 (s^−1) × 10^3
[3]; [22]
  SPR k-2: 0.25 (s^−1) × 10^3
[3]; [23]
  SPR k2: 7.0 (s^−1) × 10^3
[4]; [24]
  disruption of affinity by escape mutations, SPR: four to sixfold
  effect of escape mutations on de-isomerization kinetics, SPR: three to fourfold
[4]; V255I gp120, PT association
  SPR k1: 2.3 (M^−1 s^−1) × 10^–5
[4]; V255I gp120, PT dissociation
  SPR k-1: 14 (s^−1) × 10^3
[4]; V255I gp120, de-isomerization, three-state model
  SPR k-2: 0.72 (s^−1) × 10^3
[4]; V255I gp120, isomerization, three-state model
  SPR k2: 8.4 (s^−1) × 10^3
[5]; PT association
  SPR k1: 2.8 (M^−1 s^−1) × 10^–5
[5]; PT dissociation
  SPR k-1: 18 (s^−1) × 10^3
[5]; [22]
  SPR k-2: 1.0 (s^−1) × 10^3
[5]; [23]
  SPR k2: 9.0 (s^−1) × 10^3
CEM-GFP cells; 18 h
  concentration above which cytotoxicity was noted: above 25 μM
CEM-GFP cells; at a concentration of 125 μM
  cells dying: ~ 30%
BaL.01 viruses
  pEC50: 7.49

## KR13, linear peptide triazole thiol
[6]
  IC50 of inhibition of single-round infection of HOS.T4.X4 cells by HIV-1 pseudotyped with HxBc2 Env (luciferase): 1.4 nM
[7]
  IC50 of inhibition of single-round infection of HOS.T4.X4 cells by HIV-1 pseudotyped with HxBc2 Env (luciferase): 330 nM
[8]
  IC50 of inhibition of single-round infection of HOS.T4.X4 cells by HIV-1 pseudotyped with HxBc2 Env (luciferase): 7100 nM
[9]
  IC50 of inhibition of single-round infection of HOS.T4.X4 cells by HIV-1 pseudotyped with HxBc2 Env (luciferase): 91 nM
[10]
  IC50 of inhibition of single-round infection of HOS.T4.X4 cells by HIV-1 pseudotyped with HxBc2 Env (luciferase): 4600 nM
[11]
  IC50 of inhibition of single-round infection of HOS.T4.X4 cells by HIV-1 pseudotyped with NL4-3 Env (luciferase): 3.5 nM
[12]
  IC50 of inhibition of single-round infection of HOS.T4.X4 cells by HIV-1 pseudotyped with NL4-3 Env (luciferase): 120 nM
[13]
  IC50 of inhibition of single-round infection of HOS.T4.X4 cells by HIV-1 pseudotyped with NL4-3 Env (luciferase): 3700 nM
[14]
  IC50 of inhibition of single-round infection of HOS.T4.X4 cells by HIV-1 pseudotyped with NL4-3 Env (luciferase): 360 nM
[15]
  IC50 of inhibition of single-round infection of HOS.T4.X4 cells by HIV-1 pseudotyped with NL4-3 Env (luciferase): 6200 nM
[16]
  pKd: 7.80
  dH: -19 kcal/mol
  stoichiometry N: 1.1
[17]
  pKd: 8.96
  k1 (association step of the three-state model): 290000 M⁻¹ s⁻¹
  k2 (isomerization step of the three-state model): 0.007 s⁻¹
  k-1 (dissociation step of the three-state model): 0.0096 s⁻¹
  k-2 (de-isomerization step of the three-state model): 0.00025 s⁻¹
[18]
  dH: -13 kcal/mol
  stoichiometry N: 1
[19]
  dH: -12 kcal/mol
  stoichiometry N: 1.1
[20]
  k1 (association step of the three-state model): 230000 M⁻¹ s⁻¹
  k2 (isomerization step of the three-state model): 0.0084 s⁻¹
  k-1 (dissociation step of the three-state model): 0.014 s⁻¹
  k-2 (de-isomerization step of the three-state model): 0.00072 s⁻¹
[21]
  k1 (association step of the three-state model): 280000 M⁻¹ s⁻¹
  k2 (isomerization step of the three-state model): 0.009 s⁻¹
  k-1 (dissociation step of the three-state model): 0.018 s⁻¹
  k-2 (de-isomerization step of the three-state model): 0.001 s⁻¹
